Experimental data reported in patent US20140087995A1 (published 2014).
Numbered stars: 1 amine (or outer) side, 2 acyl side, 3 side chain; on linkers, the order of the positions; unused ones are H or OH. Bridge positions count the residues as written; N and C are the ends. Side chains are listed from the residue outwards. Ends that are not written are not given here. * marks the point of attachment. C20 diacid = O=C(O)CCCCCCCCCCCCCCCCCCC(=O)*; γGlu = O=C(O)[C@H](CCC(=O)[*:2])N[*:1]; AEEA = NCCOCCOCC(=O)O

T1: human amylin receptor (human, UniProt P30988 25-474; O60896 24-148, limits assumed)
T1 construct: whole, on cells; Calcitonin receptor plus RAMP-3 gives the amylin 3(a) receptor; membranes of Amylin 3(a)/CRE-luc cells were used; also called hAmylin-R; hAmylinR
T1 sequence (looked up) 1: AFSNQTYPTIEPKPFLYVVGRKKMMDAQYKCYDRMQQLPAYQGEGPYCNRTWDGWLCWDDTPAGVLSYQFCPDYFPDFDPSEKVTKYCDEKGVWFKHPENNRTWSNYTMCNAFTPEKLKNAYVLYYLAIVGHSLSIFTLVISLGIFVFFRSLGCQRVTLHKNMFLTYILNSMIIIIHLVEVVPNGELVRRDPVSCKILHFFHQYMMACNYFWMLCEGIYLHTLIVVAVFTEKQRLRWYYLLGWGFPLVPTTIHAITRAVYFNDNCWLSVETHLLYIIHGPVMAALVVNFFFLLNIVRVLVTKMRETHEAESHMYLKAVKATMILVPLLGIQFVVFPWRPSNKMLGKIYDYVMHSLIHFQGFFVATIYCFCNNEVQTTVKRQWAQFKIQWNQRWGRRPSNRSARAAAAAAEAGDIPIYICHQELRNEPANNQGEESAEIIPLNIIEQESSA
T1 sequence (looked up) 2: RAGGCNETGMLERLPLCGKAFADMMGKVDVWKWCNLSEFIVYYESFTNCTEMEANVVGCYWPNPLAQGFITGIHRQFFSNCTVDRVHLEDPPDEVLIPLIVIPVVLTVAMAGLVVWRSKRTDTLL


The binders below were run against T1, human amylin receptor (assay: SPA competition binding, displacement of 125I-rat amylin from membranes with human amylin 3(a) receptor (Assay V)).
Method in brief: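 Membranes from BHK Amylin 3(a)/CRE-luc cells (35 ng/μL final) were mixed with SPA beads and test compounds in 50 mM Hepes pH 7.4 with 1 mM CaCl2, 5 mM MgCl₂, 0.1% OA and 0.02% Tween20. Incubation ran 120 min at 25° C with shaking; IC₅₀ came from one-site competition fitting.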

Binder | IC50
{C20 diacid-γGlu}-GRCNTATCATQRLANFLRHSSPNFGAIPSSTNVGSNTY-NH2 (disulfide 3-8; SMILES CC[C@H](C)[C@H](NC(=O)[C@H](C)NC(=O)CNC(=O)[C@H](Cc1ccccc1)NC(=O)[C@H](CC(N)=O)NC(=O)[C@@H]1CCCN1C(=O)[C@H](CO)NC(=O)[C@H](CO)NC(=O)[C@H](Cc1c[nH]cn1)NC(=O)[C@H](CCCNC(=N)N)NC(=O)[C@H](CC(C)C)NC(=O)[C@H](Cc1ccccc1)NC(=O)[C@H](CC(N)=O)NC(=O)[C@H](C)NC(=O)[C@H](CC(C)C)NC(=O)[C@H](CCCNC(=N)N)NC(=O)[C@H](CCC(N)=O)NC(=O)[C@@H](NC(=O)[C@H](C)NC(=O)[C@@H]1CSSC[C@H](NC(=O)[C@H](CCCNC(=N)N)NC(=O)CNC(=O)CC[C@H](NC(=O)CCCCCCCCCCCCCCCCCCC(=O)O)C(=O)O)C(=O)N[C@@H](CC(N)=O)C(=O)N[C@@H]([C@@H](C)O)C(=O)N[C@@H](C)C(=O)N[C@@H]([C@@H](C)O)C(=O)N1)[C@@H](C)O)C(=O)N1CCC[C@H]1C(=O)N[C@@H](CO)C(=O)N[C@@H](CO)C(=O)N[C@H](C(=O)N[C@@H](CC(N)=O)C(=O)N[C@H](C(=O)NCC(=O)N[C@@H](CO)C(=O)N[C@@H](CC(N)=O)C(=O)N[C@H](C(=O)N[C@@H](Cc1ccc(O)cc1)C(N)=O)[C@@H](C)O)C(C)C)[C@@H](C)O, also called -1G, 1R, 17R, 21P, 27P) [N^-1-[(4S)-4-carboxy-4-(19-carboxynonadecanoylamino)butanoyl]-Gly[Arg1,Arg17,Pro21,Pro27]-h-amylin] | 0.195 nM
{C20 diacid-γGlu}-GRCNTATCATQRLAAFLRHSSPNFGAIPSSTNVGHNTY-NH2 (disulfide 3-8; SMILES CC[C@H](C)[C@H](NC(=O)[C@H](C)NC(=O)CNC(=O)[C@H](Cc1ccccc1)NC(=O)[C@H](CC(N)=O)NC(=O)[C@@H]1CCCN1C(=O)[C@H](CO)NC(=O)[C@H](CO)NC(=O)[C@H](Cc1c[nH]cn1)NC(=O)[C@H](CCCNC(=N)N)NC(=O)[C@H](CC(C)C)NC(=O)[C@H](Cc1ccccc1)NC(=O)[C@H](C)NC(=O)[C@H](C)NC(=O)[C@H](CC(C)C)NC(=O)[C@H](CCCNC(=N)N)NC(=O)[C@H](CCC(N)=O)NC(=O)[C@@H](NC(=O)[C@H](C)NC(=O)[C@@H]1CSSC[C@H](NC(=O)[C@H](CCCNC(=N)N)NC(=O)CNC(=O)CC[C@H](NC(=O)CCCCCCCCCCCCCCCCCCC(=O)O)C(=O)O)C(=O)N[C@@H](CC(N)=O)C(=O)N[C@@H]([C@@H](C)O)C(=O)N[C@@H](C)C(=O)N[C@@H]([C@@H](C)O)C(=O)N1)[C@@H](C)O)C(=O)N1CCC[C@H]1C(=O)N[C@@H](CO)C(=O)N[C@@H](CO)C(=O)N[C@H](C(=O)N[C@@H](CC(N)=O)C(=O)N[C@H](C(=O)NCC(=O)N[C@@H](Cc1c[nH]cn1)C(=O)N[C@@H](CC(N)=O)C(=O)N[C@H](C(=O)N[C@@H](Cc1ccc(O)cc1)C(N)=O)[C@@H](C)O)C(C)C)[C@@H](C)O, also called -1G, 1R, 14A, 17R, 21P, 27P, 34H) | 0.426 nM
{C20 diacid-γGlu}-GRCNTATCATQRLAAFLRHSSPNFGAIPSSTNVGPNTY-NH2 (disulfide 3-8, also called -1G, 1R, 14A, 17R, 21P, 27P, 34P) | 0.114 nM
K([AEEA-γGlu-C20 diacid])CNTATCATQRLANFLRHSSPNFGAIPSSTNVGSNTY-NH2 (disulfide 2-7; N-terminus assumed; SMILES CC[C@H](C)[C@H](NC(=O)[C@H](C)NC(=O)CNC(=O)[C@H](Cc1ccccc1)NC(=O)[C@H](CC(N)=O)NC(=O)[C@@H]1CCCN1C(=O)[C@H](CO)NC(=O)[C@H](CO)NC(=O)[C@H](Cc1c[nH]cn1)NC(=O)[C@H](CCCNC(=N)N)NC(=O)[C@H](CC(C)C)NC(=O)[C@H](Cc1ccccc1)NC(=O)[C@H](CC(N)=O)NC(=O)[C@H](C)NC(=O)[C@H](CC(C)C)NC(=O)[C@H](CCCNC(=N)N)NC(=O)[C@H](CCC(N)=O)NC(=O)[C@@H](NC(=O)[C@H](C)NC(=O)[C@@H]1CSSC[C@H](NC(=O)[C@@H](N)CCCCNC(=O)COCCOCCNC(=O)CC[C@H](NC(=O)CCCCCCCCCCCCCCCCCCC(=O)O)C(=O)O)C(=O)N[C@@H](CC(N)=O)C(=O)N[C@@H]([C@@H](C)O)C(=O)N[C@@H](C)C(=O)N[C@@H]([C@@H](C)O)C(=O)N1)[C@@H](C)O)C(=O)N1CCC[C@H]1C(=O)N[C@@H](CO)C(=O)N[C@@H](CO)C(=O)N[C@H](C(=O)N[C@@H](CC(N)=O)C(=O)N[C@H](C(=O)NCC(=O)N[C@@H](CO)C(=O)N[C@@H](CC(N)=O)C(=O)N[C@H](C(=O)N[C@@H](Cc1ccc(O)cc1)C(N)=O)[C@@H](C)O)C(C)C)[C@@H](C)O, also called 17R, 21P, 27P) | 0.427 nM
K([γGlu-C20 diacid])CNTATCATQRLAHFLRHSSPNFGAIPSSTNVGPNTY-NH2 (disulfide 2-7; N-terminus assumed; SMILES CC[C@H](C)[C@H](NC(=O)[C@H](C)NC(=O)CNC(=O)[C@H](Cc1ccccc1)NC(=O)[C@H](CC(N)=O)NC(=O)[C@@H]1CCCN1C(=O)[C@H](CO)NC(=O)[C@H](CO)NC(=O)[C@H](Cc1c[nH]cn1)NC(=O)[C@H](CCCNC(=N)N)NC(=O)[C@H](CC(C)C)NC(=O)[C@H](Cc1ccccc1)NC(=O)[C@H](Cc1c[nH]cn1)NC(=O)[C@H](C)NC(=O)[C@H](CC(C)C)NC(=O)[C@H](CCCNC(=N)N)NC(=O)[C@H](CCC(N)=O)NC(=O)[C@@H](NC(=O)[C@H](C)NC(=O)[C@@H]1CSSC[C@H](NC(=O)[C@@H](N)CCCCNC(=O)CC[C@H](NC(=O)CCCCCCCCCCCCCCCCCCC(=O)O)C(=O)O)C(=O)N[C@@H](CC(N)=O)C(=O)N[C@@H]([C@@H](C)O)C(=O)N[C@@H](C)C(=O)N[C@@H]([C@@H](C)O)C(=O)N1)[C@@H](C)O)C(=O)N1CCC[C@H]1C(=O)N[C@@H](CO)C(=O)N[C@@H](CO)C(=O)N[C@H](C(=O)N[C@@H](CC(N)=O)C(=O)N[C@H](C(=O)NCC(=O)N1CCC[C@H]1C(=O)N[C@@H](CC(N)=O)C(=O)N[C@H](C(=O)N[C@@H](Cc1ccc(O)cc1)C(N)=O)[C@@H](C)O)C(C)C)[C@@H](C)O, also called 14H, 17R, 21P, 27P, 34P) | 0.09 nM
{C20 diacid-γGlu}-KCNTATCATQRLAEFLRHSSPNFGAIPSSTNVGKNTY-NH2 (disulfide 2-7; SMILES CC[C@H](C)[C@H](NC(=O)[C@H](C)NC(=O)CNC(=O)[C@H](Cc1ccccc1)NC(=O)[C@H](CC(N)=O)NC(=O)[C@@H]1CCCN1C(=O)[C@H](CO)NC(=O)[C@H](CO)NC(=O)[C@H](Cc1c[nH]cn1)NC(=O)[C@H](CCCNC(=N)N)NC(=O)[C@H](CC(C)C)NC(=O)[C@H](Cc1ccccc1)NC(=O)[C@H](CCC(=O)O)NC(=O)[C@H](C)NC(=O)[C@H](CC(C)C)NC(=O)[C@H](CCCNC(=N)N)NC(=O)[C@H](CCC(N)=O)NC(=O)[C@@H](NC(=O)[C@H](C)NC(=O)[C@@H]1CSSC[C@H](NC(=O)[C@H](CCCCN)NC(=O)CC[C@H](NC(=O)CCCCCCCCCCCCCCCCCCC(=O)O)C(=O)O)C(=O)N[C@@H](CC(N)=O)C(=O)N[C@@H]([C@@H](C)O)C(=O)N[C@@H](C)C(=O)N[C@@H]([C@@H](C)O)C(=O)N1)[C@@H](C)O)C(=O)N1CCC[C@H]1C(=O)N[C@@H](CO)C(=O)N[C@@H](CO)C(=O)N[C@H](C(=O)N[C@@H](CC(N)=O)C(=O)N[C@H](C(=O)NCC(=O)N[C@@H](CCCCN)C(=O)N[C@@H](CC(N)=O)C(=O)N[C@H](C(=O)N[C@@H](Cc1ccc(O)cc1)C(N)=O)[C@@H](C)O)C(C)C)[C@@H](C)O, also called 14E, 17R, 21P, 27P, 34K) | 0.403 nM
K([AEEA-C20 diacid])CNTATCATQRLANFLRHSSPNFGAIPSSTNVGSNTY-NH2 (disulfide 2-7; N-terminus assumed; SMILES CC[C@H](C)[C@H](NC(=O)[C@H](C)NC(=O)CNC(=O)[C@H](Cc1ccccc1)NC(=O)[C@H](CC(N)=O)NC(=O)[C@@H]1CCCN1C(=O)[C@H](CO)NC(=O)[C@H](CO)NC(=O)[C@H](Cc1c[nH]cn1)NC(=O)[C@H](CCCNC(=N)N)NC(=O)[C@H](CC(C)C)NC(=O)[C@H](Cc1ccccc1)NC(=O)[C@H](CC(N)=O)NC(=O)[C@H](C)NC(=O)[C@H](CC(C)C)NC(=O)[C@H](CCCNC(=N)N)NC(=O)[C@H](CCC(N)=O)NC(=O)[C@@H](NC(=O)[C@H](C)NC(=O)[C@@H]1CSSC[C@H](NC(=O)[C@@H](N)CCCCNC(=O)COCCOCCNC(=O)CCCCCCCCCCCCCCCCCCC(=O)O)C(=O)N[C@@H](CC(N)=O)C(=O)N[C@@H]([C@@H](C)O)C(=O)N[C@@H](C)C(=O)N[C@@H]([C@@H](C)O)C(=O)N1)[C@@H](C)O)C(=O)N1CCC[C@H]1C(=O)N[C@@H](CO)C(=O)N[C@@H](CO)C(=O)N[C@H](C(=O)N[C@@H](CC(N)=O)C(=O)N[C@H](C(=O)NCC(=O)N[C@@H](CO)C(=O)N[C@@H](CC(N)=O)C(=O)N[C@H](C(=O)N[C@@H](Cc1ccc(O)cc1)C(N)=O)[C@@H](C)O)C(C)C)[C@@H](C)O, also called 17R, 21P, 27P) [N^ε1-[2-[2-[2-(19-carboxynonadecanoylamino)ethoxy]ethoxy]acetyl]-[Arg17,Pro21,Pro27]-h-amylin] | 0.076 nM
